Assays:
[1] = target: His6-flag-FKBP in complex with FK506 (human); assay: phage display affinity enrichment: FRAP(2015-2114) phagemids mixed with pBC control phagemids, 1 uM His6-flag-FKBP plus about 1 uM FK506, capture on Ni-NTA agarose, acid elution
[2] = target: His6-flag-FKBP in complex with rapamycin (human); assay: phage display affinity enrichment: FRAP(2015-2114) phagemids mixed with pBC control phagemids, 1 uM His6-flag-FKBP plus about 1 uM rapamycin, capture on Ni-NTA agarose, acid elution
[3] = target: His6-flag-FKBP, no drug added (ethanol alone) (human); assay: phage display affinity enrichment: FRAP(2015-2114) phagemids mixed with pBC control phagemids, 1 uM His6-flag-FKBP with ethanol alone, capture on Ni-NTA agarose, acid elution
[4] = target: 1FRB-p65(361-550) (human) (UniProt P42345); assay: cell-based or functional assay
Sequence of 1FRB-p65(361-550) (human) (P42345 other isoform, or with tags, fused parts or gaps): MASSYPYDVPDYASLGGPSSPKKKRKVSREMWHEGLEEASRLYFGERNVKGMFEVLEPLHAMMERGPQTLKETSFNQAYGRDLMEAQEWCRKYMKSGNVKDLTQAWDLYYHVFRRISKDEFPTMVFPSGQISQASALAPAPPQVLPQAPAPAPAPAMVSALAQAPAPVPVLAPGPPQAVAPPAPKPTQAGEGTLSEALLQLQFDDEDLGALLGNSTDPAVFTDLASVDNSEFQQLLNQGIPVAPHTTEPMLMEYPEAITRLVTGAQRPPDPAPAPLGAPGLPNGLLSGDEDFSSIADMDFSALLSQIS

Sequence of His6-flag-FKBP, no drug added (ethanol alone) (human) (chain, as listed by the source limits assumed): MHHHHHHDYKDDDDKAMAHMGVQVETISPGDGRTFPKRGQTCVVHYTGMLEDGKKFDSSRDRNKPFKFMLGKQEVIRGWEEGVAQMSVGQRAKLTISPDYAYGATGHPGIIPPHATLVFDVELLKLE
Sequence of His6-flag-FKBP in complex with rapamycin (human) (chain, as listed by the source limits assumed): as above
Sequence of His6-flag-FKBP in complex with FK506 (human) (chain, as listed by the source limits assumed): as above

“FRAP (amino acids 2015-2114) displayed on filamentous phagemid particles, from p-CANTAB-AP-FRAP(2015-2114) (from UniProt P03661 215-424)” showed a fold enrichment of FRAP phage compared to the starting mixture (carb/chlor cfu ratio) [1] of 2.4 fold, a fold enrichment of FRAP phage compared to the starting mixture (carb/chlor cfu ratio) [2] of 271 fold and a fold enrichment of FRAP phage compared to the starting mixture (carb/chlor cfu ratio) [3] of 1.5 fold.

“ZFHD1-3FKBP in complex with rapamycin (from UniProt P62942 1-107)” showed an SEAP activity of the stable clone at 100 nM rapamycin, extended assay (mock transfected cells 47 units) (arbitrary fluorescence units) [4] of over 90000, an SEAP secretion, transiently transfected HT1080 cells (ZFHD1-site SEAP reporter); lowest rapamycin concentration with detectable SEAP [4] of 0.5 nM and an SEAP secretion, transiently transfected HT1080 cells; rapamycin concentration at peak SEAP [4] of 5 nM.

“ZFHD1-3FKBP, no drug (from UniProt P62942 1-107)” was tested, and the SEAP activity of the stable clone without rapamycin, extended assay (mock transfected cells 47 units) (arbitrary fluorescence units) [4] was 54.
